# Residue numbers refer to the chain shown, from its start.
# Key:
# Assay in all cases: cleavage_in_vitro
# [1] = target: T1, SalI (Streptomyces albus G) (UniProt Q53608); conditions: NEB3, 37 C
# T1 sequence: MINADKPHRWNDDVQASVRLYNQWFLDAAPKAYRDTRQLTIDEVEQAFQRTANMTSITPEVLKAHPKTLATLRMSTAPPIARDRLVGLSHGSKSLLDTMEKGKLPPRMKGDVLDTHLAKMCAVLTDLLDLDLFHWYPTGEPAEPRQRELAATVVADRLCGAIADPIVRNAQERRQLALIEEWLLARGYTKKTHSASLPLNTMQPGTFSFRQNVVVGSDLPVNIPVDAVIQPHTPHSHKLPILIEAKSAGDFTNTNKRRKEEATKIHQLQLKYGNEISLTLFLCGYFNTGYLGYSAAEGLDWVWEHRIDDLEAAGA
# [2] = target: T2, SalI-HF R107A (Streptomyces albus G) (UniProt Q53608); conditions: NEB2, 37 C
# T2 sequence: T1 sequence with R107A
# [3] = test system: T3, AvrII-HF Y104F (Anabaena variabilis); conditions: NEB4, 37 C
# T3 sequence: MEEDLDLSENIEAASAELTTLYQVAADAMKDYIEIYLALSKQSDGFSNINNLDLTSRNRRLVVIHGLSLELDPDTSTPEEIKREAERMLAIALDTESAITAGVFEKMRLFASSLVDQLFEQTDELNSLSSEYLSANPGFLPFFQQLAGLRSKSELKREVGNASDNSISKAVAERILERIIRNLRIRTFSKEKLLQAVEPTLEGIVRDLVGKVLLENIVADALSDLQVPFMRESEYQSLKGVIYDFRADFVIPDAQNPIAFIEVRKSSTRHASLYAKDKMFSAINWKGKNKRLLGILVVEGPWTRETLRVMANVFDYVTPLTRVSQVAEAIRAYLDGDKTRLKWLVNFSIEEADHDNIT
# [4] = test system: T4, AvrII (Anabaena variabilis); conditions: NEB1, 37 C
# T4 sequence: T3 sequence with F104Y
# PvuII (Proteus vulgaris) = target: T5, PvuII (Proteus vulgaris) (UniProt P23657); conditions: NEB1, 37 C
# T5 sequence: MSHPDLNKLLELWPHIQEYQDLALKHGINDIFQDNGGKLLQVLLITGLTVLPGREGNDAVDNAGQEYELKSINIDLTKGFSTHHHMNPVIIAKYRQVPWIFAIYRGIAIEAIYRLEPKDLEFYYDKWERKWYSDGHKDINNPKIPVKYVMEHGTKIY
substance,measurement,setting,value
HindIII-digested lambda DNA,activity (fidelity index),[1],32
same,activity (fidelity index),[2],> 64000
T7 DNA,activity (fidelity index),[3],> 1000
same,activity (fidelity index),[4],64
pBR322,activity (fidelity index),PvuII (Proteus vulgaris),250

# Reference: patent US20130122568
